Laboratory results: paper PMC11707698, “Structure of an ex vivoDrosophila TOM complex determined by single-particle cryoEM” (IUCrJ, 2025)

Target: the molecule itself
Assay: cryo-EM structure; single-particle cryoEM of the TOM core complex assembled in the fly retina, FLAG-purified as a whole and reconstituted into non-ionic amphipol; graphene-coated grids; C2 symmetry; 3.3 Å

B1: Drosophila Tom40 subunit fused to a C-terminal FLAG-HA epitope tag (natural protein, D. melanogaster)
chain: AALENPGTVEELHKKCKDIQAITFEGAKIMLNKGLSNHFQVSHTINMSNVVPSGYRFGATYVGTKEFSPTEAFPVLLGDIDPAGNLNANVIHQFSARLRCKFASQIQESKVVASQLTTDYRGSDYTLSLTVANPSIFTNSGVVVGQYLQSVTPALALGSELAYQFGPNVPGRQIAIMSVVGRYTAGSSVWSGTLGQSGLHVCYYQKASDQLQIGAEVETSLRMQESVATLAYQIDLPKANLVFRGGIDSNWQIFGVLEKRLAPLPFTLALSGRMNHVKNNFRLGCGLMIG
notes: Tom40, translocation pore of the TOM complex, Drosophila melanogaster; transgene UAS-Tom40-FLAG.HA (Bloomington stock); residues 55-344 are modelled in the structure; two copies stand in the two-pore core complex; also called Tom40-FLAG-HA; Tom40_FLAG-HA; source: transgenic D. melanogaster retina (GMR-GAL4, UAS-Tom40-FLAG-HA, co-expressed with Myc); solubilised fly head membranes, purified on …
stoichiometry N: 2
